Patent US20170260258A1 (GENEONE LIFE SCIENCE, published 2017)

Key:
[1] = molecular target: T1, GST-pre-S1 (1st to 56th amino acids) protein (hepatitis B virus, UniProt P08515 1-218 = GST); experiment: affinity determination (competitive ELISA / Octet Red; FIGS. 2 to 5 cited)
[2] = molecular target: T1, GST-pre-S1 (1st to 56th amino acids) …; experiment: BLI (Octet Red), antibody captured on anti-human Fc tip, GST-pre-S1 in solution
Method: Thereafter, the biosensor tip was saturated with 2 μg/mL of the antibody for 10 minutes. […] The binding and separation rates were measured for 15 minutes and 30 minutes, respectively. In all the measurements, a baseline drift was corrected by subtracting a control sensor exposed to only a running buffer. The operating temperature was maintained at 30° C. The data was analyzed using a 1:1 interaction model (fitting global, Rmax unlinked by sensor) equipped with ForteBio data analysis software 7.0.

[3] = molecular target: T2, L1CAM on L1CAM-overexpressing human cholangiocarcinoma cells (SCK-L1) (UniProt P32004 20-1257); experiment: flow cytometry
T2 construct: whole, on cells; also called L1 cell adhesion molecule

[4] = molecular target: T1, GST-pre-S1 (1st to 56th amino acids) …; experiment: BLI (Octet Red)

T1 sequence (P08515 whole entry): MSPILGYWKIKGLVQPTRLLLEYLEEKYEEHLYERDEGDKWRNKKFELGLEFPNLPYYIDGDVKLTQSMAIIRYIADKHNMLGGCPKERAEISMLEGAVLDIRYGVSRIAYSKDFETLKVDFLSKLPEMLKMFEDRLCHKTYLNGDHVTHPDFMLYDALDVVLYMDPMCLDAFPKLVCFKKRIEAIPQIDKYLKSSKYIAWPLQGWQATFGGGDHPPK
T2 sequence (P32004 20-1257 limits assumed): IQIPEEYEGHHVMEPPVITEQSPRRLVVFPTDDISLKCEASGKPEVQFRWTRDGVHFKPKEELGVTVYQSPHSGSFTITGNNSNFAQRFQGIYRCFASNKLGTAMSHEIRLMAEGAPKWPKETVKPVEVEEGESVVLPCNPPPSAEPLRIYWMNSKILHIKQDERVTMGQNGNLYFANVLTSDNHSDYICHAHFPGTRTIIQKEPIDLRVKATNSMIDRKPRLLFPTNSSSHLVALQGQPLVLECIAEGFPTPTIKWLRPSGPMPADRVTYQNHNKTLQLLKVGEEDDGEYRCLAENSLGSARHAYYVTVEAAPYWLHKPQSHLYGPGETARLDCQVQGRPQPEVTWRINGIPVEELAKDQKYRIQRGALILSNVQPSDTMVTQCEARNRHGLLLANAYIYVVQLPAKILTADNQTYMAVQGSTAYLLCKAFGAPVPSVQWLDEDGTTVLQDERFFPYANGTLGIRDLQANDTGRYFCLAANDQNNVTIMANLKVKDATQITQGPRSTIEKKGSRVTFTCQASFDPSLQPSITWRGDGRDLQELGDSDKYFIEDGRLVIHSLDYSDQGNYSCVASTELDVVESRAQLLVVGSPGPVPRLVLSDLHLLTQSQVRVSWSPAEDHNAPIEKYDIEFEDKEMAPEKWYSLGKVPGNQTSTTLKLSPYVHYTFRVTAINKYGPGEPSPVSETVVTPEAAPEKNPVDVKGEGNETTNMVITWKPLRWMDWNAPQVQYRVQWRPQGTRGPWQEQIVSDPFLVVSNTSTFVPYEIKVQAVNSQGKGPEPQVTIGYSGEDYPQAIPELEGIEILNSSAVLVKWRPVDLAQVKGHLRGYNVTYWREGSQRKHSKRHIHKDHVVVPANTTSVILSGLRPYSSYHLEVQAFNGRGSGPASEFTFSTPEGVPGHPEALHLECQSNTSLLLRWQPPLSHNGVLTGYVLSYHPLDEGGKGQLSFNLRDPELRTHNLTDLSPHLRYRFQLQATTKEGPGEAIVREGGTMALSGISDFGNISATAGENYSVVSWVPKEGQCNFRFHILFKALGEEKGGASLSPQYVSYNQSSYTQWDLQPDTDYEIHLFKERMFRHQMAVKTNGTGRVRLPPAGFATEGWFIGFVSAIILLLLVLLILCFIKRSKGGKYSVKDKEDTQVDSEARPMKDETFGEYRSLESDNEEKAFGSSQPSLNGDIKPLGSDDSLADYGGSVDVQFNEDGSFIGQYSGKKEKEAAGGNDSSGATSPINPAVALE

B1: humanized antibody HzKR127-3.2 (antibody, V domains shown)
VH: QVQLQQSGAEVKKPGASVKVSCKASGYTFTSSWMNWVRQAPGQGLEWMGRIYPGDGDTSYAQKFQGRVTMTADKSTSTVYMELSSLRSEDTAVYYCAREYAEAYWGQGTLVTVSS
VL: DIVMTQTPLSLSVTPGQPASISCKSSQSLLYSNGKTYLNWLLQKPGQPPQRLIYLVSNRDSGVPDRFSGSGSGTDFTLKISRVEAEDVGVYYCVQGTHFPQTFGGGTKVEIKR
fold higher affinity than KR127 [1]: 2.5 fold
Kd [2]: 0.493 nM
koff [2]: 5.32e-05 s⁻¹
kon [2]: 108000 M⁻¹ s⁻¹
binding result [3]: no binding (tested: 1 µg of the antibody in 100 µL)
fold higher affinity than HzKR127-3.1 [4]: 1.6 fold
